From patent publication US20250340591A1, “COMPOSITION FOR PREVENTING OR TREATING INFLAMMATORY BOWEL DISEASE CONTAINING NOVEL COMPOUND” (ANYGEN CO., LTD., priority 2021, published 2025)
Read-outs that look alike come from different tables or passages of the source. Square brackets hold non-standard residues; d marks the D form. Ends that are not written are not given here. Peptide text beside a SMILES is read from it. * marks the point of attachment. His(Trt) = N[C@@H](Cc1cn(C(c2ccccc2)(c2ccccc2)c2ccccc2)cn1)C(=O)O; His(τ-CHPh2) = N[C@@H](Cc1cn(C(c2ccccc2)c2ccccc2)cn1)C(=O)O; Tyr(3-NH2) = Nc1cc(C[C@H](N)C(=O)O)ccc1O; dPhe(4-Me) = Cc1ccc(C[C@@H](N)C(=O)O)cc1; Benzhydryl = c1ccc(C(c2ccccc2)*)cc1; Octanoyl = CCCCCCCC(=O)*

Legend:
GPR39 = target: T1, GPR39 (Homo sapiens, UniProt O43194); assay: luciferase assay system (SRE luciferase reporter gene, CV-1 cells expressing GPR39); type: cell-based; parameters: expressed in transfected cells; host or cells: CV-1 fibroblast cell line (Korea Cell Line Bank), adenoviral transduction at 50 MOI
T1 sequence (O43194 1-453): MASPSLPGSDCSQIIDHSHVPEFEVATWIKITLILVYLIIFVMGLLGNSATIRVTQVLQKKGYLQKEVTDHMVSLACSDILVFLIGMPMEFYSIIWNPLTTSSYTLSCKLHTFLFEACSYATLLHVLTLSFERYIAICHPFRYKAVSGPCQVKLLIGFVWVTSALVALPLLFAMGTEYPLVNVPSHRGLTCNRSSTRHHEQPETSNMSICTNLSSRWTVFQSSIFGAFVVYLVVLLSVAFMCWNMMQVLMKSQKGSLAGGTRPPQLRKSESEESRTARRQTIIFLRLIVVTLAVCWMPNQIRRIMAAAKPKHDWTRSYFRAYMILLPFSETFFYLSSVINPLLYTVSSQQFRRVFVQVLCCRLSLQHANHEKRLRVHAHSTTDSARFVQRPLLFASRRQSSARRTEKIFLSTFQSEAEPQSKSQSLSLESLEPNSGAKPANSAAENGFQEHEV

[1] = target: T2, GPR39 (G protein coupled receptor 39) (UniProt O43194 1-453, limits assumed); assay: cell-based or functional assay
T2 sequence (looked up): T1 sequence (O43194 1-453)

[2] = target: T2, GPR39 (G protein coupled receptor 39); assay: cell-based or functional assay; remark: listed apart in the source
human GPR39 = target: T3, human GPR39 (human, UniProt O43194 1-453); assay: cell-based or functional assay
T3 sequence (looked up): T1 sequence (O43194 1-453)

## CCCCCCCC(=O)NCCCC[C@H](NC(=O)[C@@H](N)Cc1cn(C(c2ccccc2)c2ccccc2)cn1)C(=O)N[C@H](Cc1ccc(C)cc1)C(=O)N[C@@H](Cc1ccc(O)c(N)c1)C(=O)O [HKFY-70, (S)-2-((R)-2-((S)-2-((S)-2-amino-3-(1-benzhydryl-1H-imidazol-4-yl)propanamido)-6-octanamidohexanamido)-3-(p-tolyl)propanamido)-3-(3-amino-4-hydroxyphenyl)propanoic acid] (H-[His(τ-CHPh2)]K(Octanoyl)[dPhe(4-Me)][Tyr(3-NH2)]-OH)
GPR39
  ECmax (−fold induction over basal): 10.1 ± 1.6 fold induction over basal

## CCCCCCCC(=O)NCCCC[C@H](NC(=O)[C@@H](N)Cc1cn(C(c2ccccc2)(c2ccccc2)c2ccccc2)cn1)C(=O)N[C@@H](Cc1ccccc1)C(=O)N[C@@H](Cc1ccc(O)cc1)C(=O)N[C@@H](Cc1c[nH]c2ccccc12)C(=O)O [HKFY-44, N6-octanoyl-N2-(Nt-trityl-L-histidyl)-L-lysyl-L-phenylalanyl-L-tyrosyl-L-tryptophan] (H-[His(Trt)]K(Octanoyl)FYW-OH)
GPR39
  ECmax (−fold induction over basal): 20 ± 0.47 fold induction over basal

## CCCCCCCC(=O)NCCCC[C@H](NC(=O)[C@@H](N)Cc1cn(C(c2ccccc2)(c2ccccc2)c2ccccc2)cn1)C(=O)N[C@@H](Cc1ccc(O)cc1)C(=O)N[C@@H](Cc1ccccc1)C(=O)O [HKFY-47, N6-octanoyl-N2-(Nt-trityl-L-histidyl)-L-lysyl-L-tyrosyl-L-phenylalanine] (H-[His(Trt)]K(Octanoyl)YF-OH)
GPR39
  ECmax (−fold induction over basal): 13 ± 1.7 fold induction over basal

## CCCCCCCC(=O)NCCCC[C@H](NC(=O)[C@@H](N)Cc1cn(C(c2ccccc2)(c2ccccc2)c2ccccc2)cn1)C(=O)N[C@@H](Cc1ccccc1)C(=O)N[C@@H](Cc1ccc(O)cc1)C(=O)N[C@@H](CO)C(=O)N[C@@H](CCC(N)=O)C(=O)N[C@@H](CC(=O)O)C(=O)NCC(=O)N[C@@H](C)C(=O)N[C@@H](CCCNC(=N)N)C(=O)N[C@@H](Cc1ccccc1)C(N)=O [HKFY-41, (3S,6S,9S,12S,15S,18S)-3-((2-(((S)-1-(((S)-1-(((S)-1-amino-1-oxo-3-phenylpropan-2-yl)amino)-5-guanidino-1-oxopentan-2-yl)amino)-1-oxopropan-2-yl)amino)-2-oxoethyl)carbamoyl)-18-((S)-2-amino-3-(1-trityl-1H-imidazol-4-yl)propanamido)-6-(3-amino-3-oxopropyl)-15-benzyl-12-(4-hydroxybenzyl)-9-(hydroxymethyl)-5,8,11,14,17,24-hexaoxo-4,7,10,13,16,23-hexaazahentriacontanoic acid] (H-[His(Trt)]K(Octanoyl)FYSQDGARF-NH2)
GPR39; CV-1 cells, GPR39 and SRE luciferase adenovirus, 6 hours treatment
  ECmax (−fold induction over basal): 12.2 ± 0.02 fold induction over basal

## CCCCCCCC(=O)NCCCC[C@H](NC(=O)[C@@H](N)Cc1cn(CCC2CCCCC2)cn1)C(=O)N[C@@H](Cc1ccccc1)C(=O)N[C@@H](Cc1ccc(O)cc1)C(=O)O [HKFY-11, N2-(Nt-(2-cyclohexylethyl)-L-histidyl)-N6-octanoyl-L-lysyl-L-phenylalanyl-L-tyrosine]
GPR39
  ECmax (−fold induction over basal): 22 ± 2.2 fold induction over basal

B1: HKFY-34 (peptide)
peptide: H(Benzhydryl)K(Octanoyl)[dPhe(4-Me)]Y
[1]
  EC50; SRE-luciferase reporter: 7 nM
  ECmax; SRE-luciferase reporter: 22.4 -fold induction over basal
[2]
  EC50; Reporter gene assay: 6.7 nM
  ECmax; Reporter gene assay: 22.4 -fold induction over basal
Human GPR39
  EC50; Ca2+ influx assay: 2.7 nM
  ECmax; Ca2+ influx assay: 2.4 -fold induction over basal
